B1: ssDNA70 (dT70) (ssDNA)
DNA: TTTTTTTTTTTTTTTTTTTTTTTTTTTTTTTTTTTTTTTTTTTTTTTTTTTTTTTTTTTTTTTTTTTTTT
B2: ssRNA70 (ssRNA)
RNA: UUAGUUGUUCGUAGUGCUCGUCUGGCUCUGGAUUACCCGCUUAGUUGUUCGUAGUGCUCGUCUGGCUCUG

Tests used:
MDCC-SSB [1] = target: T1, MDCC-SSB (UniProt P0AGE0 1-178, G27C); experiment: MDCC fluorescence spectra; excess ssDNA70; 3 mM MgCl2; 50 mM Tris-HCl pH 7.5, 3 mM MgCl2, 100 mM (or 200 mM) NaCl; MDCC titrations 25 C; EMSA room temperature, 20 min; settings: protein: recombinant; tags: pET151 vector, His tag (HisTrap purified); MDCC label (at C26, implied); chain copies: 4; single strand
T1 sequence (P0AGE0 whole entry G27C): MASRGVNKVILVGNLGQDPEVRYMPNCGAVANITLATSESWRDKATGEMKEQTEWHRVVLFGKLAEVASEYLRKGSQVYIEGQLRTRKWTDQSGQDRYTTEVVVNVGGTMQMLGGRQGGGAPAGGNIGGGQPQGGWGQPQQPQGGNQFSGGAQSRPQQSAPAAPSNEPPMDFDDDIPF

MDCC-SSB [2] = target: T1, MDCC-SSB; experiment: MDCC fluorescence spectra; excess ssRNA70; 3 mM MgCl2; 50 mM Tris-HCl pH 7.5, 3 mM MgCl2, 100 mM (or 200 mM) NaCl; MDCC titrations 25 C; EMSA room temperature, 20 min; settings: protein: recombinant; tags: pET151 vector, His tag (HisTrap purified); MDCC label (at C26, implied); chain copies: 4; single strand

| Binder | binding signal (MDCC-SSB [1]) | binding signal (MDCC-SSB [2]) |
| --- | --- | --- |
| B1 | 1.9 fold fluorescence increase | – |
| B2 | – | 2.1 fold fluorescence increase |
